According to US20170204182A1 (published 2017):
Residue numbers refer to the chain shown, from its start.

T1: CD81 (UniProt P60033 1-236, limits assumed)
T1 construct: whole, on cells; also called CD81 receptor
T1 sequence (looked up): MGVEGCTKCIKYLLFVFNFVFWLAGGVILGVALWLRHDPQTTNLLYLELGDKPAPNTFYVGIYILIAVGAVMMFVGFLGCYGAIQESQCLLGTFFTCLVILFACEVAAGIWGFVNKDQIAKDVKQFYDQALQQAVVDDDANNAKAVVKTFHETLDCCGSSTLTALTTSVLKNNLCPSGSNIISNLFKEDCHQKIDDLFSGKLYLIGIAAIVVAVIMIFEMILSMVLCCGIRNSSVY

B1: CD81K04 HC CD81K04 / LC CD81K04 (antibody, V domains shown)
VH: QVQLQQSGPELVKPGASVKISCKASGYTFSSSWMNWVKQRPGKGLEWIGRIYSGDGDAIYNGKFKGKATLTADKSSSTAYMQLSSLTSEDSAVYFCAREGKTGDLLLRSWGQGSALTVSS
VL: DIVLTQSPASLSVSLGQRATISCRASKSVSTSIYSYMHWYQQKPGQPPKLLIKYASYLESGVPARFSGSGSGTDFTLNIHPVEEEDAATYYCEHSREFPFTFGTGTKLEIK
notes: chimeric form of murine CD81K04
B2: CD81K04 HC K04_JA-13-hVH_1_3 / LC CD81K04 (antibody, V domains shown)
VH: QVQLVQSGAEVKKPGASVKVSCKASGYTFSSSWMNWVRQAPGQRLEWMGRIYSGDGDAIYNGKFKGRVTITRDTSASTAYMELSSLRSEDTAVYYCAREGKTGDLLLRSWGQGTLVTVSS
VL: B1 VL
B3: Rb86 HC 001_IGHV3_23_04 / LC Rb86 (antibody, V domains shown)
VH: QQLVESGGGLVQPGGSLRLSCAASGFSLSSNAINWVRQAPGKGLEWVGYIAVSGNTYYASWAKGRFTISRDNSKNTLYLQMNSLRAEDTAVYYCGKSNIWGQGTLVTVSS
VL: AQVLTQTTSPVSAAVGSTVTISCQSSQSVRTNKLAWFQQKPGQPPKRLIYSASTLDFGVPSRFSASGSGTQFTLTISDVQCDDAATYYCLGYFDCSIADCVAFGGGTEVVVK
B4: Rb86 HC 001_IGHV3_23_04 / LC 010--IMGT_hVK_1_17 (antibody, V domains shown)
VH: B3 VH
VL: DIQMTQSPSSLSASVGDRVTITCRASQGVRTNKLGWYQQKPGKAPKRLIYSASTLQSGVPSRFSGSGSGTEFTLTISSLQPEDFATYYCLGYFDCSIADCVAFGGGTKVEIK
B5: Rb86 HC 001_IGHV3_23_04 / LC 014--IMGT_hVK_1_17 (antibody, V domains shown)
VH: B3 VH
VL: B4 VL with G35A, Y37F, K43Q, A44P, P81S
B6: Rb86 HC 001_IGHV3_23_04 / LC 015--IMGT_hVK_1_17 (antibody, V domains shown)
VH: B3 VH
VL: B4 VL with G35A, Y37F, K43Q, A44P, C95S, C100S
B7: Rb86 HC 001_IGHV3_23_04 / LC 005--IMGT_hVK_4_1 (antibody, V domains shown)
VH: B3 VH
VL: DIVMTQSPDSLAVSLGERATINCKSSQSVRTNKLAWFQQKPGQPPKRLIYSASTLDSGVPDRFSGSGSGTDFTLTISSLQAEDVAVYYCLGYFDSSIADSVAFGGGTKVEIK
B8: Rb86 HC 001_IGHV3_23_04 / LC 002--IMGT_hVK_4_1 (antibody, V domains shown)
VH: B3 VH
VL: B7 VL with D1A, I2Q, S95C, S100C
B9: Rb86 HC 002--IMGT_hVH_3_23 / LC Rb86 (antibody, V domains shown)
VH: B3 VH with Q2S, L3V, V4L, Q102P
VL: B3 VL
B10: Rb86 HC 001_IGHV3_23_04 / LC 001--IMGT_hVK_1_5 (antibody, V domains shown)
VH: B3 VH
VL: B4 VL with P8T, S10T, R24Q, A25S, G28S, G35A, Y37F, Q56D, S57F, E82D
B11: Rb86 HC 001_IGHV3_23_04 / LC 017--IMGT_hVK_1_17 (antibody, V domains shown)
VH: B3 VH
VL: B4 VL with A25S, G28S, G35A, Y37F, K43Q, A44P, Q56D, S57F
B12: Rb86 HC 001_IGHV3_23_04 / LC 012--IMGT_hVK_1_17 (antibody, V domains shown)
VH: B3 VH
VL: B4 VL with G35A, Y37F, K43Q, A44P
B13: Rb86 HC 001_IGHV3_23_04 / LC 004--IMGT_hVK_4_1 (antibody, V domains shown)
VH: B3 VH
VL: B7 VL with S95C, S100C
B14: Rb86 HC 001_IGHV3_23_04 / LC 013--IMGT_hVK_1_17 (antibody, V domains shown)
VH: B3 VH
VL: B4 VL with P8T, G35A, Y37F, K43Q, A44P
B15: Rb86 HC 001_IGHV3_23_04 / LC 003--IMGT_hVK_4_1 (antibody, V domains shown)
VH: B3 VH
VL: B7 VL with D1A, I2Q, S95C, S100C, K108E, E110V, I111V
B16: Rb86 HC 001_IGHV3_23_04 / LC 006--IMGT_hVK_7_3 (antibody, V domains shown)
VH: B3 VH
VL: DIVLTQSPASLAVSPGQRATITCQSSQSVRTNKLAWFQQKPGQPPKRLIYSASTLDFGVPARFSGSGSGTDFTLTINPVEANDTANYYCLGYFDCSIADCVAFGGGTKVEIK
B17: Rb86 HC Rb86 / LC 014--IMGT_hVK_1_17 (antibody, V domains shown)
VH: QSVEESGGRLVTPGTPLTLTCTVSGFSLSSNAINWVRQAPGKGLEWIGYIAVSGNTYYASWAKGRFTISKASTTVDLKMTSPTAEDTGTYFCGKSNIWGPGTLVTVSL
VL: B4 VL with G35A, Y37F, K43Q, A44P, P81S
B18: Rb86 variant: HC 001_IGHV3_23_04 / LC 004--IMGT_hVK_4_1 (antibody, V domains shown)
VH: B3 VH
VL: B7 VL with S95C, S100C
B19: Rb86 variant: HC 002--IMGT_hVH_3_23 / LC Rb86 (antibody, V domains shown)
VH: B3 VH with Q2S, L3V, V4L, Q102P
VL: B3 VL
B20: Rb86 variant: HC 001_IGHV3_23_04 / LC 005--IMGT_hVK_4_1 (antibody, V domains shown)
VH: B3 VH
VL: B7 VL
B21: Rb86 variant: HC 001_IGHV3_23_04 / LC 013--IMGT_hVK_1_17 (antibody, V domains shown)
VH: B3 VH
VL: B4 VL with P8T, G35A, Y37F, K43Q, A44P
B22: Rb86 variant: HC 001_IGHV3_23_04 / LC Rb86 (antibody, V domains shown)
VH: B3 VH
VL: B3 VL
B23: Rb86 variant: HC 001_IGHV3_23_04 / LC 001--IMGT_hVK_1_5 (antibody, V domains shown)
VH: B3 VH
VL: B4 VL with P8T, S10T, R24Q, A25S, G28S, G35A, Y37F, Q56D, S57F, E82D
B24: Rb86 variant: HC 001_IGHV3_23_04 / LC 015--IMGT_hVK_1_17 (antibody, V domains shown)
VH: B3 VH
VL: B4 VL with G35A, Y37F, K43Q, A44P, C95S, C100S
B25: Rb86 variant: HC 001_IGHV3_23_04 / LC 014--IMGT_hVK_1_17 (antibody, V domains shown)
VH: B3 VH
VL: B4 VL with G35A, Y37F, K43Q, A44P, P81S
B26: Rb86 variant: HC 001_IGHV3_23_04 / LC 017--IMGT_hVK_1_17 (antibody, V domains shown)
VH: B3 VH
VL: B4 VL with A25S, G28S, G35A, Y37F, K43Q, A44P, Q56D, S57F
B27: Rb86 variant: HC 001_IGHV3_23_04 / LC 002--IMGT_hVK_4_1 (antibody, V domains shown)
VH: B3 VH
VL: B7 VL with D1A, I2Q, S95C, S100C
B28: Rb86 variant: HC 001_IGHV3_23_04 / LC 003--IMGT_hVK_4_1 (antibody, V domains shown)
VH: B3 VH
VL: B7 VL with D1A, I2Q, S95C, S100C, K108E, E110V, I111V
B29: Rb86 variant: HC 001_IGHV3_23_04 / LC 012--IMGT_hVK_1_17 (antibody, V domains shown)
VH: B3 VH
VL: B4 VL with G35A, Y37F, K43Q, A44P
B30: Rb86 variant: HC 001_IGHV3_23_04 / LC 006--IMGT_hVK_7_3 (antibody, V domains shown)
VH: B3 VH
VL: B16 VL
B31: Rb86 variant: HC Rb86 / LC 017--IMGT_hVK_1_17 (antibody, V domains shown)
VH: B17 VH
VL: B4 VL with A25S, G28S, G35A, Y37F, K43Q, A44P, Q56D, S57F
B32: Rb86 variant: HC Rb86 / LC 012--IMGT_hVK_1_17 (antibody, V domains shown)
VH: B17 VH
VL: B4 VL with G35A, Y37F, K43Q, A44P

Biological target: T1, CD81
Test: cell ELISA
Experimental: For the binding cell ELISA assay, HuH7-Rluc-H3 (positive cell line expressing CD81) and HuH7-Rluc-L1 (negative control cell line) were propagated in F-12 DMEM medium with 10% FCS at 37° C. and 5% CO₂. On day 1, the cells were trypsinized at approximately 90% confluence and resuspended at 4×10⁵ cells/mL. […] On day 2, the antibody samples to be tested were prepared in a separate polypropylene round bottom plate with a twofold desired concentration with a final volume of 120 μl. All of the assay samples were diluted in cell culture medium. […] After fixation, each well was washed 3 times with 200 μL PBS/0.05% Tween. The secondary incubation step for detection of bound anti-CD81 antibodies was performed for 2 h at room temperature on a reciprocal shaker. […] Each well was washed three times with 200 PBS/0.05% Tween to remove unbound antibodies. […] The absorbance was read using the ELISA Tecan reader at 450 nm with 620 nm reference wavelength.

Question: With B1 as the binder, how does the ELISA absorbance read?
Answer: 1.14

Question: B2 was tested. Which ELISA absorbance did it give?
Answer: 0.975

Biological target: T2, phosphorylated human tau protein (human, UniProt P10636-8 1-441, limits assumed, S422 phosphorylation)
T2 construct: also called pTau
Test: SPR BIAcore
T2 sequence (P10636 other isoform, or with tags, fused parts or gaps limits assumed): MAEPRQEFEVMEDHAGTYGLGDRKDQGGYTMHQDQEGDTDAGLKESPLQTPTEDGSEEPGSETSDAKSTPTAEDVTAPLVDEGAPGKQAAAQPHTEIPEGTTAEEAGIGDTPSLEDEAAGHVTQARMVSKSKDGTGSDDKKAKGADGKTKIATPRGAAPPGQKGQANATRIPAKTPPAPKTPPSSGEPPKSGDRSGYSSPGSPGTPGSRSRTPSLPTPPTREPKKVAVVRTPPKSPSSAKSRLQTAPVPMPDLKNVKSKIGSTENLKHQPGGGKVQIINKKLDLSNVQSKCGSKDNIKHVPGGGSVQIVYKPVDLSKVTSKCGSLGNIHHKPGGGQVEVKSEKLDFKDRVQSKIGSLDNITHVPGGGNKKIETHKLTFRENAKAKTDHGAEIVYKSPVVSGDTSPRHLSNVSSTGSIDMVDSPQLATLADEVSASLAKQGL

Question: Which BL does the source give for B3 here?
Answer: 197 RU

Question: Which BL does the source give for B4 here?
Answer: -4.7 RU

Question: With B5 as the binder, how does the BL read?
Answer: 96.2 RU

Question: B6 was tested. Which BL did it give?
Answer: 63.6 RU

Question: For B7, which BL is on record?
Answer: 62.9 RU

Question: Which BL does the source give for B8 here?
Answer: 108 RU

Question: B9 was tested. Which BL did it give?
Answer: 225 RU

Question: Which BL does the source give for B10 here?
Answer: 101 RU

Question: With B11 as the binder, how does the BL read?
Answer: 91.1 RU

Question: Which BL does the source give for B12 here?
Answer: 92.2 RU

Question: How did the BL turn out when B13 was run?
Answer: 59.2 RU

Question: B14 was tested. Which BL did it give?
Answer: 90.9 RU

Question: How did the BL turn out when B15 was run?
Answer: 102 RU

Question: B16 was tested. Which BL did it give?
Answer: 97.9 RU

Question: With B17 as the binder, how does the BL read?
Answer: 150 RU

Biological target: T3, phosphorylated human tau protein (human, UniProt P10636-8 1-441, limits assumed, S422 phosphorylation)
T3 construct: also called pTau
Test: SPR (BIAcore), captured antibody
T3 sequence (P10636 other isoform, or with tags, fused parts or gaps limits assumed): as above

Question: How did the “half-life (t1/2)” value turn out when B18 was run?
Answer: 3.44 min

Question: B19 was tested. Which “half-life (t1/2)” value did it give?
Answer: 8.41 min

Question: With B20 as the binder, how does the “half-life (t1/2)” value read?
Answer: 1.71 min

Question: For B21, which “half-life (t1/2)” value is on record?
Answer: 5.65 min

Question: B22 was tested. Which “half-life (t1/2)” value did it give?
Answer: 12.7 min

Question: How did the “half-life (t1/2)” value turn out when B23 was run?
Answer: 3.41 min

Question: For B24, which “half-life (t1/2)” value is on record?
Answer: 3.02 min

Question: Which “half-life (t1/2)” value does the source give for B25 here?
Answer: 5.08 min

Question: With B26 as the binder, how does the “half-life (t1/2)” value read?
Answer: 5.26 min

Question: B27 was tested. Which “half-life (t1/2)” value did it give?
Answer: 5.36 min

Question: For B28, which “half-life (t1/2)” value is on record?
Answer: 4.76 min

Question: How did the “half-life (t1/2)” value turn out when B29 was run?
Answer: 4.67 min

Question: With B30 as the binder, how does the “half-life (t1/2)” value read?
Answer: 4.38 min

Question: B31 was tested. Which “half-life (t1/2)” value did it give?
Answer: 23.2 min

Question: B32 was tested. Which “half-life (t1/2)” value did it give?
Answer: 15.9 min
